Data on one substance can be found in publication PMC11582070, “Template-assisted covalent modification underlies activity of covalent molecular glues” (Nature Chemical Biology, 2023).

The target in the assay is recombinant BRD4BD2 (residues 368-440) (human) (UniProt O60885).

GAK_(14–351)-HA, sequence (O14976 14-351): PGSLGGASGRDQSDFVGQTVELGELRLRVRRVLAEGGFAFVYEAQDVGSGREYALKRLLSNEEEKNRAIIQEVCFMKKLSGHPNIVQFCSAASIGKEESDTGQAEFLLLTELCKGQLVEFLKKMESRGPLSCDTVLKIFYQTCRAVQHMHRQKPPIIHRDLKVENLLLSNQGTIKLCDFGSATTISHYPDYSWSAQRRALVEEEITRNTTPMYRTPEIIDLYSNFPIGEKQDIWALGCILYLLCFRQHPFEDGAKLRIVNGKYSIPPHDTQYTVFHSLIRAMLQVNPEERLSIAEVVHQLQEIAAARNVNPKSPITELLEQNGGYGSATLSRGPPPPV

Regarding “GAK_(14–351)-HA (from UniProt O14976 14-351) (domain or fragment)”, the intact protein mass spectrometry: MMH2 adduct on recombinant GAK 14-351 with BRD4BD2 present, 4 °C 16 h (approximately 2% without BRD4BD2) stood at 22% and the intact protein mass spectrometry: TMX1 adduct on recombinant GAK 14-351 with BRD4BD2 present, 4 °C 16 h (none detectable without BRD4BD2) was 5%.
